{"source": "the supplement of paper PMC6757056", "parents": {"B1": {"name": "library; a variant is named by its letters at N, in order (parent)", "chain": "GCUGUCACCGGUGUAUUACCCUAGUGGUCGACCGGUCUGAUGAGUCUNNNNNNAGACGAAACAGC"}}, "key": {"hypoxanthine [1]": {"variants_of": "B1", "assay": "FACS-Seq fitted mean relative fluorescence mCherry/BFP without ligand (log10 relative fluorescence); ligand: hypoxanthine (xanthine aptamer); higher = higher reporter protein expression", "details": "HEK293T, ligand present: no", "procedure,_shortened": "(§1)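 HEK293T libraries were made by lentiviral transduction with a ribozyme-switch mCherry reporter and an EF1α-BFP marker, enriched, and incubated with or without ligand for 48 h. Cells were sorted into 6 mCherry/BFP bins, and each bin's genomic DNA was PCR-amplified, barcoded and run on MiSeq. Fluorescence was derived by normal fitting of the bin counts. The fitted log10(mCherry/BFP) mean was scaled to five spiked-in control ribozymes.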"}, "hypoxanthine [2]": {"variants_of": "B1", "assay": "normalized RNA/DNA level with ligand (relative to sTRSVctl = 100) (log10 (% of sTRSVctl)); ligand: hypoxanthine (xanthine aptamer); higher = less ribozyme self-cleavage, higher mRNA level", "details": "ligand concentration (+) RNA-Seq: 5 mM, HEK293T, reporter: mCherry (pCS4076), ligand present: yes", "method": "(§2)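 Hammerhead (sTRSV) ribozyme switch libraries with a ligand aptamer grafted on stem I and a randomized N4-6 loop II, cloned into the 3' UTR of mCherry and transiently transfected into HEK293T cells; RNA-Seq 72 h post transfection with ligand added 1 h before transfection; RNA read count / plasmid DNA read count normalized to the non-cleaving sTRSVctl (x100), log10; sequences with >100 DNA reads. FACS-Seq: lentiviral library sorted into 6 bins after 48 h ligand, log-normal fit mean of mCherry/BFP scaled to controls. Printed sequences are partial switch sequences.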"}, "hypoxanthine [3]": {"variants_of": "B1", "assay": "normalized RNA/DNA level without ligand (relative to sTRSVctl = 100) (log10 (% of sTRSVctl)); ligand: hypoxanthine (xanthine aptamer); higher = less ribozyme self-cleavage, higher mRNA level", "details": "HEK293T, reporter: mCherry (pCS4076), ligand present: no", "method": "as §2"}, "hypoxanthine [4]": {"variants_of": "B1", "assay": "FACS-Seq fitted mean relative fluorescence mCherry/BFP with ligand (log10 relative fluorescence); ligand: hypoxanthine (xanthine aptamer); ligand concentration (+) FACS-Seq: 5 mM; higher = higher reporter protein expression", "details": "HEK293T, ligand present: yes", "procedure,_shortened": "as §1"}}, "note": "± gives the standard deviation of the averaged measurements.", "data": [{"variant": "UAGGUG", "values": [{"measurement": "FACS-Seq fitted mean (log10)", "setting": "hypoxanthine [1]", "value": "0.399 ± 0.065"}, {"measurement": "normalized RNA/DNA level with ligand (log10)", "setting": "hypoxanthine [2]", "value": "1.89 ± 0.079"}, {"measurement": "normalized RNA/DNA level without ligand (log10)", "setting": "hypoxanthine [3]", "value": "1.61 ± 0.035"}, {"measurement": "FACS-Seq fitted mean (log10)", "setting": "hypoxanthine [4]", "value": "0.591 ± 0.012"}]}, {"variant": "UAGGUC", "values": [{"measurement": "FACS-Seq fitted mean (log10)", "setting": "hypoxanthine [1]", "value": "0.588 ± 0.034"}, {"measurement": "normalized RNA/DNA level with ligand (log10)", "setting": "hypoxanthine [2]", "value": "1.978 ± 0.0051"}, {"measurement": "normalized RNA/DNA level without ligand (log10)", "setting": "hypoxanthine [3]", "value": "1.95 ± 0.054"}, {"measurement": "FACS-Seq fitted mean (log10)", "setting": "hypoxanthine [4]", "value": "0.577 ± 0.036"}]}, {"variant": "CAGGGG", "values": [{"measurement": "FACS-Seq fitted mean (log10)", "setting": "hypoxanthine [1]", "value": "0.166 ± 0.0056"}, {"measurement": "normalized RNA/DNA level with ligand (log10)", "setting": "hypoxanthine [2]", "value": "1.75 ± 0.036"}, {"measurement": "normalized RNA/DNA level without ligand (log10)", "setting": "hypoxanthine [3]", "value": "1.23 ± 0.06"}, {"measurement": "FACS-Seq fitted mean (log10)", "setting": "hypoxanthine [4]", "value": "0.48135 ± 0.00032"}]}, {"variant": "GAUAGG", "values": [{"measurement": "FACS-Seq fitted mean (log10)", "setting": "hypoxanthine [1]", "value": "-0.0874 ± 0.036"}, {"measurement": "normalized RNA/DNA level with ligand (log10)", "setting": "hypoxanthine [2]", "value": "1.737 ± 0.017"}, {"measurement": "normalized RNA/DNA level without ligand (log10)", "setting": "hypoxanthine [3]", "value": "1.27 ± 0.04"}, {"measurement": "FACS-Seq fitted mean (log10)", "setting": "hypoxanthine [4]", "value": "0.506 ± 0.068"}]}, {"variant": "GAUAGA", "values": [{"measurement": "FACS-Seq fitted mean (log10)", "setting": "hypoxanthine [1]", "value": "0.3713 ± 0.0031"}, {"measurement": "normalized RNA/DNA level with ligand (log10)", "setting": "hypoxanthine [2]", "value": "1.89 ± 0.052"}, {"measurement": "normalized RNA/DNA level without ligand (log10)", "setting": "hypoxanthine [3]", "value": "1.592 ± 0.01"}, {"measurement": "FACS-Seq fitted mean (log10)", "setting": "hypoxanthine [4]", "value": "0.547 ± 0.025"}]}, {"variant": "GAGUAU", "values": [{"measurement": "FACS-Seq fitted mean (log10)", "setting": "hypoxanthine [1]", "value": "0.3631 ± 0.0016"}, {"measurement": "normalized RNA/DNA level with ligand (log10)", "setting": "hypoxanthine [2]", "value": "1.913 ± 0.0071"}, {"measurement": "normalized RNA/DNA level without ligand (log10)", "setting": "hypoxanthine [3]", "value": "1.69 ± 0.021"}, {"measurement": "FACS-Seq fitted mean (log10)", "setting": "hypoxanthine [4]", "value": "0.472 ± 0.017"}]}, {"variant": "GAGUAG", "values": [{"measurement": "FACS-Seq fitted mean (log10)", "setting": "hypoxanthine [1]", "value": "-0.0875 ± 0.065"}, {"measurement": "normalized RNA/DNA level with ligand (log10)", "setting": "hypoxanthine [2]", "value": "1.57 ± 0.033"}, {"measurement": "normalized RNA/DNA level without ligand (log10)", "setting": "hypoxanthine [3]", "value": "1.13 ± 0.05"}, {"measurement": "FACS-Seq fitted mean (log10)", "setting": "hypoxanthine [4]", "value": "0.421 ± 0.051"}]}, {"variant": "GAGUAC", "values": [{"measurement": "FACS-Seq fitted mean (log10)", "setting": "hypoxanthine [1]", "value": "0.301 ± 0.14"}, {"measurement": "normalized RNA/DNA level with ligand (log10)", "setting": "hypoxanthine [2]", "value": "1.907 ± 0.019"}, {"measurement": "normalized RNA/DNA level without ligand (log10)", "setting": "hypoxanthine [3]", "value": "1.71 ± 0.041"}, {"measurement": "FACS-Seq fitted mean (log10)", "setting": "hypoxanthine [4]", "value": "0.51 ± 0.013"}]}, {"variant": "GAGUAA", "values": [{"measurement": "FACS-Seq fitted mean (log10)", "setting": "hypoxanthine [1]", "value": "0.154 ± 0.061"}, {"measurement": "normalized RNA/DNA level with ligand (log10)", "setting": "hypoxanthine [2]", "value": "1.878 ± 0.015"}, {"measurement": "normalized RNA/DNA level without ligand (log10)", "setting": "hypoxanthine [3]", "value": "1.54 ± 0.023"}, {"measurement": "FACS-Seq fitted mean (log10)", "setting": "hypoxanthine [4]", "value": "0.427 ± 0.056"}]}, {"variant": "CAUCGA", "values": [{"measurement": "FACS-Seq fitted mean (log10)", "setting": "hypoxanthine [1]", "value": "0.435 ± 0.017"}, {"measurement": "normalized RNA/DNA level with ligand (log10)", "setting": "hypoxanthine [2]", "value": "1.97 ± 0.052"}, {"measurement": "normalized RNA/DNA level without ligand (log10)", "setting": "hypoxanthine [3]", "value": "1.84 ± 0.029"}, {"measurement": "FACS-Seq fitted mean (log10)", "setting": "hypoxanthine [4]", "value": "0.6297 ± 0.0034"}]}, {"variant": "AAUGGG", "values": [{"measurement": "FACS-Seq fitted mean (log10)", "setting": "hypoxanthine [1]", "value": "0.049 ± 0.035"}, {"measurement": "normalized RNA/DNA level with ligand (log10)", "setting": "hypoxanthine [2]", "value": "1.77 ± 0.052"}, {"measurement": "normalized RNA/DNA level without ligand (log10)", "setting": "hypoxanthine [3]", "value": "1.25 ± 0.063"}, {"measurement": "FACS-Seq fitted mean (log10)", "setting": "hypoxanthine [4]", "value": "0.547 ± 0.047"}]}, {"variant": "AAUGGA", "values": [{"measurement": "FACS-Seq fitted mean (log10)", "setting": "hypoxanthine [1]", "value": "0.265 ± 0.081"}, {"measurement": "normalized RNA/DNA level with ligand (log10)", "setting": "hypoxanthine [2]", "value": "1.88 ± 0.022"}, {"measurement": "normalized RNA/DNA level without ligand (log10)", "setting": "hypoxanthine [3]", "value": "1.61 ± 0.038"}, {"measurement": "FACS-Seq fitted mean (log10)", "setting": "hypoxanthine [4]", "value": "0.192 ± 0.36"}]}, {"variant": "UAUAUA", "values": [{"measurement": "FACS-Seq fitted mean (log10)", "setting": "hypoxanthine [1]", "value": "0.814 ± 0.011"}, {"measurement": "normalized RNA/DNA level with ligand (log10)", "setting": "hypoxanthine [2]", "value": "1.95 ± 0.04"}, {"measurement": "normalized RNA/DNA level without ligand (log10)", "setting": "hypoxanthine [3]", "value": "1.836 ± 0.018"}, {"measurement": "FACS-Seq fitted mean (log10)", "setting": "hypoxanthine [4]", "value": "0.838 ± 0.068"}]}, {"variant": "UAUAUG", "values": [{"measurement": "FACS-Seq fitted mean (log10)", "setting": "hypoxanthine [1]", "value": "0.385 ± 0.02"}, {"measurement": "normalized RNA/DNA level with ligand (log10)", "setting": "hypoxanthine [2]", "value": "1.88 ± 0.049"}, {"measurement": "normalized RNA/DNA level without ligand (log10)", "setting": "hypoxanthine [3]", "value": "1.723 ± 0.013"}, {"measurement": "FACS-Seq fitted mean (log10)", "setting": "hypoxanthine [4]", "value": "0.531 ± 0.025"}]}, {"variant": "AAUAAU", "values": [{"measurement": "FACS-Seq fitted mean (log10)", "setting": "hypoxanthine [1]", "value": "0.172 ± 0.059"}, {"measurement": "normalized RNA/DNA level with ligand (log10)", "setting": "hypoxanthine [2]", "value": "1.89 ± 0.022"}, {"measurement": "normalized RNA/DNA level without ligand (log10)", "setting": "hypoxanthine [3]", "value": "1.75 ± 0.021"}, {"measurement": "FACS-Seq fitted mean (log10)", "setting": "hypoxanthine [4]", "value": "0.376 ± 0.046"}]}, {"variant": "AAUAAG", "values": [{"measurement": "FACS-Seq fitted mean (log10)", "setting": "hypoxanthine [1]", "value": "0.306 ± 0.0098"}, {"measurement": "normalized RNA/DNA level with ligand (log10)", "setting": "hypoxanthine [2]", "value": "1.83 ± 0.024"}, {"measurement": "normalized RNA/DNA level without ligand (log10)", "setting": "hypoxanthine [3]", "value": "1.473 ± 0.005"}, {"measurement": "FACS-Seq fitted mean (log10)", "setting": "hypoxanthine [4]", "value": "0.638 ± 0.04"}]}, {"variant": "AAUAAA", "values": [{"measurement": "FACS-Seq fitted mean (log10)", "setting": "hypoxanthine [1]", "value": "0.416 ± 0.064"}, {"measurement": "normalized RNA/DNA level with ligand (log10)", "setting": "hypoxanthine [2]", "value": "1.872 ± 0.014"}, {"measurement": "normalized RNA/DNA level without ligand (log10)", "setting": "hypoxanthine [3]", "value": "1.756 ± 0.011"}, {"measurement": "FACS-Seq fitted mean (log10)", "setting": "hypoxanthine [4]", "value": "0.252 ± 0.092"}]}, {"variant": "AAUACC", "values": [{"measurement": "FACS-Seq fitted mean (log10)", "setting": "hypoxanthine [1]", "value": "0.491 ± 0.22"}, {"measurement": "normalized RNA/DNA level with ligand (log10)", "setting": "hypoxanthine [2]", "value": "1.933 ± 0.019"}, {"measurement": "normalized RNA/DNA level without ligand (log10)", "setting": "hypoxanthine [3]", "value": "1.895 ± 0.0024"}, {"measurement": "FACS-Seq fitted mean (log10)", "setting": "hypoxanthine [4]", "value": "0.448 ± 0.018"}]}]}
